Measurements reported in patent US10100120B2, “Antibody which specifically binds to human CRTH2” (KYOWA HAKKO KIRIN CO., LTD, priority 2015, dated 2018).

Columns and labels:
[1] = molecular target: T1, mutated human CRTH2 with amino acid substitution (Homo sapiens, UniProt Q9Y5Y4, D171A/I173A/T172A); assay: Epitope analysis using CHO-S cells which express mutated human CRTH2 with amino acid substitution; type: binding; details: mutant D171A, T172A, and I173A; antibody 10 μg/mL; relative to wild-type = 100%
T1 construct: inserting genes encoding various mutants with amino acid substitution obtained by deleting termination codons; expressed in transfected cells; host or cells: CHO-S cells (Lifetechnologies), transient (phmAG1-MNLinker vector)
T1 sequence (Q9Y5Y4 1-395 D171A/T172A/I173A): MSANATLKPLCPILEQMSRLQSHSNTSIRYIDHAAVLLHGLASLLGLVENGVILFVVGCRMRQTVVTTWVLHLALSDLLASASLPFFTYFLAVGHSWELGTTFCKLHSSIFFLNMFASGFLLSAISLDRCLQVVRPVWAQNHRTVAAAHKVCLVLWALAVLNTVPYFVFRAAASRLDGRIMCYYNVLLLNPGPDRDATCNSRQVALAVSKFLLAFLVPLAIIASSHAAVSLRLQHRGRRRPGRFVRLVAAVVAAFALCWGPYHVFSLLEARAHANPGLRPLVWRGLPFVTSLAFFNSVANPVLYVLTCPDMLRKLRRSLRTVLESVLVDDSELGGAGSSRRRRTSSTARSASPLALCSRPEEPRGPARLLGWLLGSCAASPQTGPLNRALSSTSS
How it was run: (§1)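 CHO-S cells transiently expressing alanine-substituted human CRTH2 extracellular mutants, C-terminally Azami-Green tagged, 24 h post-transfection. Antibodies at 10 μg/mL, 4 °C 1 h, then Alexa647 anti-IgG secondary 4 °C 1 h; flow cytometry on Azami-Green-positive cells. Reactivity = Alexa647 intensity divided by Azami-Green intensity.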

[2] = molecular target: T2, mutated human CRTH2 with amino acid substitution (Homo sapiens, UniProt Q9Y5Y4, L187A/L188A/L189A); assay: as above; type: binding; details: mutant L187A, L188A, and L189A; antibody 10 μg/mL; relative to wild-type = 100%
T2 construct: inserting genes encoding various mutants with amino acid substitution obtained by deleting termination codons; expressed in transfected cells; host or cells: CHO-S cells (Lifetechnologies), transient (phmAG1-MNLinker vector)
T2 sequence (Q9Y5Y4 1-395 L187A/L188A/L189A): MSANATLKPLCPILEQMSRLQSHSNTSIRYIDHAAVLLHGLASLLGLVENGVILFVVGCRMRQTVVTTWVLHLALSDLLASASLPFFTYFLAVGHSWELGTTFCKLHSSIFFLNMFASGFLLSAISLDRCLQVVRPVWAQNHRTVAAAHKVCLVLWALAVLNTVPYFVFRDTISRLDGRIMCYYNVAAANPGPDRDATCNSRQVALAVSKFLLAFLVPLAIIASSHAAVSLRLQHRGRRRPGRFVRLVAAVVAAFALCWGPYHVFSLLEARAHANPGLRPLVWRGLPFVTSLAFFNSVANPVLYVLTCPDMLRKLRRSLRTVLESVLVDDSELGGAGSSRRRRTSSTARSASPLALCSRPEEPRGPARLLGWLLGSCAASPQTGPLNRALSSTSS
How it was run: as §1

B1: LV0HV1: humanized Lym2 antibody, VL LV0 (SEQ ID NO: 33), VH HV1 (SEQ ID NO: 51) (antibody, V domains shown)
VH: EVQLVESGGGVVQPGRSLRLSCAASGFTFSNYYMAWVRQAPGKGLEWVATISYDGSSTYYRDSVKGRFTISRDNAKNSLYLQMNSLRAEDTATYYCARHRGYYYSGAGYFDYWGQGTMVTVSS
VL: DIVMTQTPLSLPVTPGESASISCRSSQSLEYSDGYTYLEWYLQKPGQSPQVLIYGVSNRFSGVPDRFSGSGSGTDFTLKISRVEAEDVGVYYCFQATHDPLTFGQGTKLEIK
- reactivity against cells expressing mutated human CRTH2 [1]: greatly decreased
- reactivity against cells expressing mutated human CRTH2 [2]: lost
